# Primed or numbered codes have the meaning given here. Ends that are not written are not given here. 5FAM′ = 5-carboxyfluorescein
# T1: human S100A5 (human, UniProt P33763 1-92)
# T1 sequence: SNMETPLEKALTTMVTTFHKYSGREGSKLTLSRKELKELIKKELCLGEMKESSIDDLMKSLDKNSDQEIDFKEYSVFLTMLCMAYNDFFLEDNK
# How the values were obtained:
# human S100A6 = human S100A6 (human, UniProt P06703 1-90); experiment: fluorescence polarisation; displacement of the 5FAM probe peptide by increasing unlabeled peptide; 2.4-4.2 µM protein (monomer) with probe at the same concentration; 50 mM TES, 100 mM NaCl, 0.01% Tween-20, pH 7.4; KD,apparent corrected for the probe; conditions: both partners purified
# human S100A5 = molecular target: T1, human S100A5; experiment: as above; conditions: both partners purified
Kd (human S100A6),Kd (human S100A5),binding result (human S100A6),binding result (human S100A5),Binder
12.4 ± 2 µM,2.6 ± 2 µM,,,GFDWRWGMEALTGGGSAE (the methods name only the nine test peptides and the probe as ordered from Genscript) [unlabeled probe peptide GFDWRWGMEALTGGGSAE]
,,binds,binds,"{5FAM′}-GFDWRWGMEALTGGGSAE (also called fluorescently labeled probe peptide; source: synthetic peptide, bought: Genscript (95% purity)) [probe peptide 5FAM-GFDWRWGMEALTGGGSAE]"
,> 1000 µM,,,"SRQTTSTHEWVVGGGSAE (synthetic unlabelled peptide with free N-terminus; C-terminal state not printed. The Methods print the full 18-mer (12-mer + GGGSAE flank, matching the stated library design); the Results form with …) [peptide SRQTTSTHEWVVGGGSAE]"

# Reference: article PMC8136485, “Were Ancestral Proteins Less Specific?” (Molecular Biology and Evolution, 2021)
